55 molecules from US20200199241A1 (Chugai, published 2020) can be followed below.

Residue numbers refer to the chain shown, from its start. In names and notes the source's numbering stands.

First the molecules themselves.
B1: IgG1-F431 (antibody)
heavy: QVQLQESGPGLVKPSETLSLTCAVSGHSISHDHAWSWVRQPPGEGLEWIGFISYSGITNYNPSLQGRVTISRDNSKNTLYLQMNSLRAEDTAVYYCARSLARTTAMDYWGEGTLVTVSSASTKGPSVFPLAPSSKSTSGGTAALGCLVKDYFPEPVTVSWNSGALTSGVHTFPAVLQSSGLYSLSSVVTVPSSSLGTQTYICNVNHKPSNTKVDKKVEPKSCDKTHTCPPCPAPELLGGPSVFLFPPKPKDTLYISRTVEVTCVVVDVSHEDPEVKFNWYVDGVEVHNAKTKPREEQYNSTYRVVSVLQVLHQDWLNGKEYKCKVSNKALPAPIEKTISKAKGQPREPQVYTLPPSRDELTKNQVSLTCLVKGFYPSDIAVEWESNGQPENNYKTTPPVLDSDGSFFLYSKLTVDKSRWQQGNVFSCSVFHEALHYHYTQKSLSLSP
light: not shown
notes: EU numbering; copies: 2 + 2
B2: IgG1-F452 (antibody)
heavy: B1 heavy with Y254M, V259M, Q309A, F430L
light: not shown
notes: EU numbering; copies: 2 + 2
B3: IgG1-F433 (antibody)
heavy: B1 heavy with Y254M, Q313A, N327G, F430M
light: not shown
notes: EU numbering; copies: 2 + 2
B4: IgG1-F439 (antibody)
heavy: B1 heavy with Y254M, V259A
light: not shown
notes: EU numbering; copies: 2 + 2
B5: IgG1-F471 (antibody)
heavy: B1 heavy with Y254M, V259T, Q309T, V310P, N327G, E384A, F430L
light: not shown
notes: EU numbering; copies: 2 + 2
B6: IgG1-F485 (antibody)
heavy: B1 heavy with Y254M, N288E, Q309A, F430M
light: not shown
notes: EU numbering; copies: 2 + 2
B7: IgG1-F488 (antibody)
heavy: B1 heavy with Y254M, Q309T, V310P, N327G, F430L
light: not shown
notes: EU numbering; copies: 2 + 2
B8: IgG1-F442 (antibody)
heavy: B1 heavy with Y254M, V259A, Q309T, Q313H, F430L
light: not shown
notes: EU numbering; copies: 2 + 2
B9: IgG1-F477 (antibody)
heavy: B1 heavy with Y254M, P389E, F430L
light: not shown
notes: EU numbering; copies: 2 + 2
B10: IgG1-F460 (antibody)
heavy: B1 heavy with Y254M, Q309A, V310P, N327G, F430L
light: not shown
notes: EU numbering; copies: 2 + 2
B11: IgG1-F451 (antibody)
heavy: B1 heavy with Y254M, V259S, Q309A, F430L
light: not shown
notes: EU numbering; copies: 2 + 2
B12: IgG1-F499 (antibody)
heavy: B1 heavy with Y254M, V259A, Q309A, F430V
light: not shown
notes: EU numbering; copies: 2 + 2
B13: IgG1-F446 (antibody)
heavy: B1 heavy with Y254M, V259A, Q309A, Q313H, F430L
light: not shown
notes: EU numbering; copies: 2 + 2
B14: IgG1-F449 (antibody)
heavy: B1 heavy with S241K, V259P, D272F, Q309P, N327G, F430Y
light: not shown
notes: EU numbering; copies: 2 + 2
B15: IgG1-F472 (antibody)
heavy: B1 heavy with Y254M, V259T, Q309T, V310P, N327G, P389E, F430L
light: not shown
notes: EU numbering; copies: 2 + 2
B16: IgG1-F475 (antibody)
heavy: B1 heavy with Y254M, T258E, F430L
light: not shown
notes: EU numbering; copies: 2 + 2
B17: IgG1-F432 (antibody)
heavy: B1 heavy with Y254M, Q313A, N327G, F430V
light: not shown
notes: EU numbering; copies: 2 + 2
B18: IgG1-F441 (antibody)
heavy: B1 heavy with Y254M, V259A, Q309T, Q313A, F430L
light: not shown
notes: EU numbering; copies: 2 + 2
B19: IgG1-F474 (antibody)
heavy: B1 heavy with Y254M, V259T, Q309T, V310P, L311R, N327G, F430L
light: not shown
notes: EU numbering; copies: 2 + 2
B20: IgG1-F443 (antibody)
heavy: B1 heavy with Y254M, V259A, Q313A, F430L
light: not shown
notes: EU numbering; copies: 2 + 2
B21: IgG1-F444 (antibody)
heavy: B1 heavy with Y254M, V259A, Q309A, Q313A, F430L
light: not shown
notes: EU numbering; copies: 2 + 2
B22: IgG1-F459 (antibody)
heavy: B1 heavy with Y254M, V310P, Q313A, N327G, F430L
light: not shown
notes: EU numbering; copies: 2 + 2
B23: IgG1-F447 (antibody)
heavy: B1 heavy with Y254M, V259A, N288E, F430L
light: not shown
notes: EU numbering; copies: 2 + 2
B24: IgG1-F463 (antibody)
heavy: B1 heavy with Y254M, V259A, Q309A, V310P, F430L
light: not shown
notes: EU numbering; copies: 2 + 2
B25: IgG1-F440 (antibody)
heavy: B1 heavy with Y254M, N288E, Q313A, N327G, F430L
light: not shown
notes: EU numbering; copies: 2 + 2
B26: IgG1-F483 (antibody)
heavy: B1 heavy with Y254M, Q313A, F430M
light: not shown
notes: EU numbering; copies: 2 + 2
B27: IgG1-F454 (antibody)
heavy: B1 heavy with Y254M, V259I, Q309A, F430L
light: not shown
notes: EU numbering; copies: 2 + 2
B28: IgG1-F437 (antibody)
heavy: B1 heavy with Y254M, V259A, F430M
light: not shown
notes: EU numbering; copies: 2 + 2
B29: IgG1-F493 (antibody)
heavy: B1 heavy with S241K, Y254M, V259P, D272F, Q309P, N327G, F430Y
light: not shown
notes: EU numbering; copies: 2 + 2
B30: IgG1-F464 (antibody)
heavy: B1 heavy with Y254M, V259A, V310P, F430L
light: not shown
notes: EU numbering; copies: 2 + 2
B31: IgG1-F470 (antibody)
heavy: B1 heavy with Y254M, T258E, V259T, Q309T, V310P, N327G, F430L
light: not shown
notes: EU numbering; copies: 2 + 2
B32: IgG1-F436 (antibody)
heavy: B1 heavy with Y254M, V259A, F430V
light: not shown
notes: EU numbering; copies: 2 + 2
B33: IgG1-F469 (antibody)
heavy: B1 heavy with Y254M, V259T, Q309T, V310P, N327G, F430L
light: not shown
notes: EU numbering; 'N3250' read as N325G; copies: 2 + 2
B34: IgG1-F480 (antibody)
heavy: B1 heavy with Y254M, V259L, Q309T, V310P, F430M
light: not shown
notes: EU numbering; copies: 2 + 2
B35: IgG1-F438 (antibody)
heavy: B1 heavy with Y254M, V259A, F430Y
light: not shown
notes: EU numbering; copies: 2 + 2
B36: IgG1-F465 (antibody)
heavy: B1 heavy with Y254M, N288E, N327G, F430L
light: not shown
notes: EU numbering; copies: 2 + 2
B37: IgG1-F476 (antibody)
heavy: B1 heavy with Y254M, E384A, F430L
light: not shown
notes: EU numbering; copies: 2 + 2
B38: IgG1-F448 (antibody)
heavy: B1 heavy with Y254M, V259A, N288E, Q309A, F430L
light: not shown
notes: EU numbering; copies: 2 + 2
B39: IgG1-F456 (antibody)
heavy: B1 heavy with Y254M
light: not shown
notes: EU numbering; copies: 2 + 2
B40: IgG1-F467 (antibody)
heavy: B1 heavy with Y254M, T258E, V259T, Q309T, F430M
light: not shown
notes: EU numbering; copies: 2 + 2
B41: IgG1-F453 (antibody)
heavy: B1 heavy with Y254M, V259N, Q309A, F430L
light: not shown
notes: EU numbering; copies: 2 + 2
B42: IgG1-F481 (antibody)
heavy: B1 heavy with Y254M, V259T, F430M
light: not shown
notes: EU numbering; copies: 2 + 2
B43: IgG1-F498 (antibody)
heavy: B1 heavy with Y254M, V259A, Q309T, F430V
light: not shown
notes: EU numbering; 'N428V' as printed, probably M428V; copies: 2 + 2
B44: IgG1-F473 (antibody)
heavy: B1 heavy with Y254M, V259T, Q309T, V310P, L311P, N327G, F430L
light: not shown
notes: EU numbering; copies: 2 + 2
B45: IgG1-F468 (antibody)
heavy: B1 heavy with S241K, Y254M, V259T, Q309T, V310P, F430L
light: not shown
notes: EU numbering; copies: 2 + 2
B46: IgG1-F466 (antibody)
heavy: B1 heavy with Y254M, T258E, Q309T, F430M
light: not shown
notes: EU numbering; copies: 2 + 2
B47: IgG1-F484 (antibody)
heavy: B1 heavy with Y254M, V307A, F430M
light: not shown
notes: EU numbering; copies: 2 + 2
B48: IgG1-F435 (antibody)
heavy: B1 heavy with Y254M, Q313A, N327G
light: not shown
notes: EU numbering; copies: 2 + 2
B49: IgG1-F482 (antibody)
heavy: B1 heavy with Y254M, N327G, F430M
light: not shown
notes: EU numbering; copies: 2 + 2
B50: IgG1-F455 (antibody)
heavy: B1 heavy with Y254M, F430Y
light: not shown
notes: EU numbering; copies: 2 + 2
B51: IgG1-F486 (antibody)
heavy: B1 heavy with Y254M, L311R, Q313H, F430L
light: not shown
notes: EU numbering; copies: 2 + 2
B52: IgG1-F497 (antibody)
heavy: B1 heavy with Y254M, V259T, Q309A, F430V
light: not shown
notes: as for B43
B53: IgG1-F458 (antibody)
heavy: B1 heavy with Y254M, V310P, N327G, F430L
light: not shown
notes: EU numbering; copies: 2 + 2
B54: IgG1-F457 (antibody)
heavy: B1 heavy with S241K, Y254M, Q309T, V310P, F430L
light: not shown
notes: EU numbering; copies: 2 + 2
B55: IgG1-F490 (antibody)
heavy: B1 heavy with S241K, Y254M, Q309T, V310P, Q313H, F430L
light: not shown
notes: EU numbering; copies: 2 + 2

T1 sequence (chain, as listed by the source limits assumed, chain 1 of 2): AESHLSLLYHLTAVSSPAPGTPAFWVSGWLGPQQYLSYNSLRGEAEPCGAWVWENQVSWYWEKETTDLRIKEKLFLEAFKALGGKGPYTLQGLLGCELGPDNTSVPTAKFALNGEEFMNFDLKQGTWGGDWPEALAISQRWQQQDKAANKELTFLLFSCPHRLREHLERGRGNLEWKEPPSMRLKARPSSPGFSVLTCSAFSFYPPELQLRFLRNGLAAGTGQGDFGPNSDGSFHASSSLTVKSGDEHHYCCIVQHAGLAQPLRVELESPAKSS
T1 sequence (P61769 21-119 limits assumed, chain 2 of 2): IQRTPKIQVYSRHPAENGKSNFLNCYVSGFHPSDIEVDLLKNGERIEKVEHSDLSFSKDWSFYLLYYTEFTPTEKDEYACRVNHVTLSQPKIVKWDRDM

This assay concerns the target T1, human FcRn (soluble human FcRn complexed with β2-microglobulin) (human, UniProt P61769 21-119, limits assumed).
T1 construct: also called hFcRn
Nature of the assay: SPR, pH 7.0.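 Note: antibodies captured on a Protein L sensor chip with human FcRn injected as analyte, KD calculated from fitted association and dissociation rate constants.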 On the technique in general: Surface plasmon resonance follows binding to a sensor surface in real time, without labels.
A word on the Kd: it is a measure of binding affinity in units of concentration. Read a low Kd as a tighter complex. As to B1, binding was characterised by a dissociation constant (Kd) of 65 nM.
B2 gave a Kd of 140 nM.
The result for B3 reads 60 nM; that for B4, 40 nM.
The result for B5 reads 66 nM; that for B6, 97 nM.
The result for B7 reads 35 nM; that for B8, 200 nM.
On to B9, for which binding was characterised by a dissociation constant (Kd) of 43 nM.
For B10, binding was put at a Kd of 47 nM.
Under B11 stands 100 nM; under B12, 520 nM.
Molecule B13 had an equilibrium dissociation constant (Kd) of 110 nM.
The result for B14 reads 570 nM.
Under B15 stands 54 nM; under B16, 43 nM.
B17 had a Kd of 920 nM.
The result for B18 reads 180 nM; that for B19, 350 nM.
The result for B20 reads 55 nM; that for B21, 140 nM; that for B22, 13 nM.
Under B23 stands 14 nM; under B24, 130 nM.
Molecule B25 yielded a dissociation constant (Kd) of 15 nM.
B26: the affinity, expressed as Kd, was 57 nM.
The result for B27 reads 96 nM; that for B28, 57 nM.
Under B29 stands 490 nM; under B30, 55 nM; under B31, 54 nM.
The molecule B32 gave a Kd of 250 nM.
The molecule B33 registered an equilibrium dissociation constant (Kd) of 56 nM.
Under B34 stands 39 nM; under B35, 36 nM; under B36, 21 nM.
In the case of B37, the dissociation constant (Kd) came out at 55 nM.
In turn, B38 had a Kd of 53 nM.
The result for B39 reads 34 nM.
Molecule B40 showed a dissociation constant Kd of 570 nM.
B41 registered a Kd of 78 nM.
Under B42 stands 56 nM; under B43, 1300 nM; under B44, 450 nM.
Molecule B45 gave a dissociation constant Kd of 57 nM.
The result for B46 reads 350 nM; that for B47, 62 nM.
The result for B48 reads 25 nM.
The result for B49 reads 70 nM; that for B50, 27 nM; that for B51, 340 nM.
Regarding B52, the affinity, expressed as Kd, was 3100 nM.
The result for B53 reads 15 nM; that for B54, 40 nM; that for B55, 75 nM.
